The source of these data is the nanobody polyreactivity screen of Harvey et al. (2022).

The data set in a line: yeast display, Sf9 membrane polyspecificity reagent, FACS + sequencing; frameworks hold sequencing errors. A digest of the protocol:
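A synthetic nanobody library was expressed on Saccharomyces cerevisiae BJ5465 by galactose induction for 36–48 hours. The library was stained for 1 hour at 4 °C with 10% biotinylated, detergent-solubilized Sf9 membrane reagent and enriched with streptavidin microbeads before FACS. Low and high (top ~1%) gates were set on anti-HA fluorescence for expression and streptavidin fluorescence for reagent binding, and each polyreactivity label reflects the gate of origin.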
In the case of “QGQLVESGGGLVQAGGSLRLSCAASGFIYGFYGMGWYRQAPGKEREFVAAIDFIDGDTYYADSVKGRFTISRDNAKNTVYLQMNSLKPEDTAVYYCAAVGSFWQFDYWGQGTQVTVSS”, the “polyreactivity (PSR sort gate)” value is on record as “low polyreactivity”. As to “QVQLVESGGGLVQAGGSLRLSCAASGSTFSYNAMGWYRQAPGKERELVAAIDRSVSTNYADSVKGRFTISRDNAKNTVYLQMNSLKPEDTAVYYCNARHPTDDIVIYDYWGQGTQVTVSS”, the “polyreactivity (PSR sort gate)” value was “low polyreactivity”. In the case of “QVQLVESGGGLVQAGGSLRLSCAASGITFNDNAMGWYRQAPGKERELVAAINSGTGTYYADSVKGRFTISRDNAKNTVYLQMNSLKPEDTAVYYCAADSRPYLRDYWGQGTQVTVSS”, the “polyreactivity (PSR sort gate)” value is recorded as “low polyreactivity”.

For “QVQLVESGGGLVQAGGSLRLSCAASGSIFGYNAMVWYRQAPGKESELVAAIRYSGGRTYYADSVKGRFTISRDNAKNSVYLQMNSLKPEDTAVYYCAAPIKFYRYGYTRYDYWGQCTQVTVSS”, the “polyreactivity (PSR sort gate)” value was “high polyreactivity”. The result for “QVQLQESGGGLVQAGGSLLLSCAASGSISGPHVMGWYRQAPGKEREFVAAINVGANTYYADNVKGRFTISRDNAKNTVYLQMNSLKPEDTAVYYCAAVYYGDIGHEYWGQGTQVTVSC” reads “low polyreactivity”.

Consider “QVQLVESGGGLVQAGGSLRLSCAASGRIFKINAMGWYRQAPGKERELVAGISGSGSDTYYSDSVKGRFTISRDNAKNTVYLQMNSLKPEDTAVYYCAAVAYDWALFYYWGQGTQVTVSS”, for which the “polyreactivity (PSR sort gate)” value is given as “low polyreactivity”. As to “QVQRVESGGGLVQAGGSLRLSCAASGRTVGYYAMGWYRQAPGKERELLAAITRTGGSTHYADSVKGRFTISRANAKNTVYIQMNSLKPEDTAVYYCARDYRYTIPYDYWGQGTQVTVSS”, the “polyreactivity (PSR sort gate)” value is “low polyreactivity”. Regarding “QDQHVESGGGLVQAGGSLRLSCAASGGNYAGYAMGWYRQAAGKARELVAAISWRGTSTYYADSVKGRFTISRDNAKNTVYLELNSLKPEDTAVYYCAAEAASWWGYGYWGQGTQVTVSS”, the “polyreactivity (PSR sort gate)” value was “high polyreactivity”. As to “QVQLVESGGGLVQAGGSLRLSCAACGRTFQSNAMGWYRQAPGKERELVARITRRGGITYYADSVKGRFTISRDNAKNTVYLQMNSLKPEDTAVYYCNRYLYDSYRWAALQRTGYNSWGQGTQVTVSS”, the “polyreactivity (PSR sort gate)” value is “high polyreactivity”. In the case of “QDQLVESGGGLVQAGGSLRLSCAASGRTFQYNAMGWDRQARGSERELVAAISSSGGSTYYADSVKGRFTISRDNAKNTVYLQMNSLKPEDTAVYYCNAYSQSWNFYGDGDYWGQGTQVTVSS”, the “polyreactivity (PSR sort gate)” value is reported as “low polyreactivity”. The entry for “QVQLVESGGGLVQAGGSLRLSCAASGSTITQYAMGWYRQAPGKEREFVAAINSRGDSTYYADSVKGRFTISRDNAKNTVYLQMNSLKPEDTAVYYCNADYQTDDDPYGYDYWGQGTQVTVSS” is “low polyreactivity”; for “QVQLVESGGGLVQAGGSLRLSCAASGRIFGGYAMGWYRQAPGKERELVPSITGRATSTYYADSVKGRFTISRDNAKNTVYLQMNRLKPEDTAVYYFNALYRKYRNQWYISNYGYYYWGQGTQVTVSS” it is “low polyreactivity”. As to “QVQLVESGGGLVQAGGSLRLSCAASGSIFGYYALGWYRQAPGKERELVAAITSVGSTYYADSVKGRFTISRDNAKKTVSLQMNSLKPEDTAVYYCATRFWFRSLRSSYYYWGQGTQVTVSS”, the “polyreactivity (PSR sort gate)” value is “high polyreactivity”. For the sequence “QDQLVESGGGLVQAGGSLRLSCAASGSTYYYAMGWYRQAPGKERELVAAIRSGSRTYADSVKGRFTISRDNAKNTVYLQMNSLKPEDTAVYYCAATTWRHNFYSWGQGTQVTVSS”, the “polyreactivity (PSR sort gate)” value is recorded as “high polyreactivity”. As to “QVQLQESGGRLEQAGGSLRPSCAASGSISDGVPMRWNRQAPGEERELVATTVLGATTNYADSVKGRFTISRGNAKHTVYLQMNSLKPEETAVYYCAARLRYDKGFSYWGQGTQVTVSS”, the “polyreactivity (PSR sort gate)” value was “low polyreactivity”. “QVQLVESGGGLVQAGGSLRLSCAASGRTFGGNVRGWYRQAPGKERELVAAISYSGGSTHYADSVKGRFTISRDNAKNTVYLQMMSLIPEDTAVYYCNKPFPYYPDGPNGYDYWGQGTQVTVSS”: the “polyreactivity (PSR sort gate)” value is recorded as “low polyreactivity”.

For “QVQLVESGGGLVQAGGSLRLSCAASGLIFVINAMGWYRQAPGTERELVATISSGVSTNYADSVKGRFTISRDNAKNTVYLQMNSLKPEDTAVYYCNKGQTVSRGYRLYERYVYWGQGTQVTVSS”, the “polyreactivity (PSR sort gate)” value is reported as “low polyreactivity”. With “QVQLVESGGGLVQAGGSLRLSCAASGFTFHRNAMGWYRQAPGKERELVAAISTRGGSTAYADSVKGRFTISRDNAKNTVYLQMNSLKPEDTAVYYCAAATSPGIYDYWGQGTQVTVSS”, the “polyreactivity (PSR sort gate)” value was “high polyreactivity”. For “QVQLVESGGGLVQAGGSLRLSCTASGSIFVTNAMGWYRQAPGKERELVAAITWGGGNTTYADSVKGRFTISRDNAKNTVDLQMNSLKPEDTAVYYCAKDPYVNRDYWGQGTQVTVSS”, the “polyreactivity (PSR sort gate)” value is listed as “low polyreactivity”. Turning to “QVQLVESGGGLVQAGGSLRLSCAASGLTFGNYAMGWDRQAPGKERELVAAISWGGGITYYADSVKGRFTISRDIAKNTVYLQMNSLKPEDTAVYYCAADVYFNSTPDYLYDYWGQGTQVTVSS”, the “polyreactivity (PSR sort gate)” value was “low polyreactivity”.

Turning to “QVQRVESGGGLFQAGGRLRLSCAASGLIFPWYARGWYRQAPGKERELVAAISVRGGSTYYADSVKGRFTISRDNAKNTVYLQMNSLKPEDTAVYYCAASKRRASYRYYYWGQGTQVTVSS”, the “polyreactivity (PSR sort gate)” value is “high polyreactivity”. “QVQLVESGGGLVQAGGSLPLSCAASGSIFDGYAMGWYSQAPGKDRELDAGISKSGGRTYYADSVKGRFTISRDNAKNTVYLQMNSLKPEDTAVYYCATPGIRYDRVYRYDYWGQGTQVTVSS”: the “polyreactivity (PSR sort gate)” value is “high polyreactivity”. The entry for “QVQLVESGGGLVQAGGSLRLSCAASGSIFSYYAMGWYRQAPGKERELVAAISGDSGRTYYADSVKGRFTISRDNAKNTVYLQMNSLKPEDTAVYYCNARVAYRYRTGYDYWGQGTQVTVSS” is “high polyreactivity”; for “QVQLVESGGGLVHAGGSLRLSCAASGSIFRGYAMGWYRQAPGKERELVAAISRDGGSTYYADSVKGRFSISRDNAKNTVYLQMNSLKPEETAVYYCAADYVAYATYGDGDYWGQGTQVTVSS” it is “high polyreactivity”; for “QVQLVESGGGLVQAGGSLRLSCAASGRIFTNAMGWYRQAPGKERELVAAISGGSNTYYADSVKGRFTISRDNAKNTVYLQMNSLKPEDTAVYYCNTDDLWWDGGYDYWGQGTQVTVSS” it is “low polyreactivity”. On to “QVQLVESGGGIVQAGGSLRLSCAASGGIFLGNAMVWYRQAPGKERELVAGITWSGGRTYYADSVKGRFTISRDNAKNTVYLQMNSLKPEDTAVYYCNKDTPGTRFYGIYSYDYWGQGTQVTVSS”, for which the “polyreactivity (PSR sort gate)” value was “low polyreactivity”.

As to “QVQLVESGGGLVQAGGSLRLSCAASGIIFAHYAMGWYRQAPGKERELVAAISRGGSSTYYADSVKGRFTISRDNAKNTVYLQMNSLKPEDTAVDYCAAYGPKVIGPKTSYSSSRYDYWGQGTQVTVSS”, the “polyreactivity (PSR sort gate)” value is reported as “high polyreactivity”. “QVLLQEIGGGLVQAGGSLRLCCAASGYISGDQFMGWYRQAPGKEPECVAGIGNGTNSNYADSVKGRFTTSRDNAKNTVYLQMNILKPEDTAVYYCAADPSDGSTLAFWGQGTQVTVSS”: the “polyreactivity (PSR sort gate)” value is “high polyreactivity”.

Regarding “QVQLVESGGGLVQAGGSLRLSCAASGSTFGGNVMGWYRPAPGKERELVATISRSGGSTYYADSVKGRFTISRDNAKNTVYLQMNSLKPEDTAVYYCAARTLHYSPSTFYRYQYDYWGQGTQVTVSS”, the “polyreactivity (PSR sort gate)” value is on record as “high polyreactivity”. For the sequence “QVQLVESGGGIVQAGGSLRLSCADSGSTFRDNAMGLYRQAPGKERELVAAITVIDGTTYYADSVKGRFTISRDNAKNTVYLQMNSLKPEDTAVYYCAADTIWYEYYYWGQGTQVTVSS”, the “polyreactivity (PSR sort gate)” value is recorded as “low polyreactivity”.

Take “QVQLVESGGGLVQAGGSLRLSCAASGRIFLFYAMGWYRQAPGKERELVASITSSGGDTSYYADSVKGRFTISLDNAKNTVYLQMNSLKPEDNAVYYCASRPWTSWRYYYWGQGTQVTVSS”: the “polyreactivity (PSR sort gate)” value is “high polyreactivity”. Turning to “QVQLVESGGGLVQAGGSLRLSCAASGFTFGPYAMGWSRQAPGKEREFVAAITSSGGSTYYADSVKGRFTISRDNAKNTVYLQMNSLKPEDTAVYYCNARSRGYVGKTPRRYYYWGQGTQVTVSS”, the “polyreactivity (PSR sort gate)” value was “high polyreactivity”. With “QDQLEESGGGLVQAGGSLRLSCAASGSTFLVYAMGWYRQAPGKEREFVAAISWSGGSTFYADSVKGRFTISRDNAKNTVYLQMNSLKPEDTAVYYCAARQAGYSGRKLYYWGQGTQVTVSS”, the “polyreactivity (PSR sort gate)” value is given as “low polyreactivity”. The result for “QVQLVESGGGLVQAGGSLRLSCAASGITFYGNAMGWYRQAPGKERELVAGISSGGSTSYADSVKGRFTISRDNAKNTVYLQMNSLKPEDTAVYYCAKRWYYGTRYGTSYIRDYWGQGTQVTVSS” reads “high polyreactivity”.

As for “QVQLVESGGGLVQAGGSLRLSCAASGRTFPYNAMGWYRQAPGKERELVAAISWRGGSTYYADSVKGRFTISRDNAKNTVYLQMNSLKPEDTAVYYCNALYPVSYDHRGDYWGQGTQVTVSS”, the “polyreactivity (PSR sort gate)” value is reported as “high polyreactivity”. Regarding “QVHLVESVGGLVQAGGSLRLSCAASGSTFIYYAMVRYRQAPGKERELVASISRSGGSTYYADSVKGRFTISRDNAKNTVYLQMNSLKPEDTAFYYCARAYRSSFNYWGQGTQVTVSS”, the “polyreactivity (PSR sort gate)” value is given as “high polyreactivity”. The entry for “QVQLVESGGGLVQAGGSLRLSCAASGFTIRNYAMGLYRQAPGKERELFAAIRGRGGSTYYADSVKGRFTISRDNAKNTDYLQMNSLKPEDTAVYYCARVGYASYEHDYWGQGTQVNVSS” is “high polyreactivity”; for “QVQLVESGGGLVQAGGSLRLSCAASGSTFWSYAMGWYRPAPGKERELVAAITSGGRTYYADSVKGRFTISRDNAKNTVYLQMNSLKPEDTAVYYCNAVVRHTYRRFDYWGQGTQVTVSS” it is “high polyreactivity”. Consider “QVQLVESGGGLVQAGGSLRLSCAASGRIFLVYVMGWYRQAPAKERELVAANSWSGGSTYYADSVKGRFTISRDNAKNTVYLQMNSLKPEDTAVYYFAAYYRGRNFDYWGQATQVTVSS”, for which the “polyreactivity (PSR sort gate)” value is “high polyreactivity”. Regarding “QVQLVESGGGLVQAGGSLRLSCAASGSTLNYYAMGWYRQAPGKERELVAAIRSGGNTNYADSVKGRFTISRDNAKNTVYLQMNSLKPEDTAVYYCAKDESYFYDRVPLDYWGQGTQVTVSS”, the “polyreactivity (PSR sort gate)” value was “low polyreactivity”. On to “QVQLVESGGGLVQAGGSLRLSCAASGFTFTPYAMGLYSQAPGKERELVAAITWRGGTYYADSVKGRFTISRDNAKKSVYLQMNSLKPEDTAVYYCAARVWRLYPSTYDYWGQGTQVTVSS”, for which the “polyreactivity (PSR sort gate)” value is listed as “high polyreactivity”.
